Consider eight molecules from patent US20140322220A1 (Bayer, published 2014).

The target of assay [1] is T1, hFGFR1β-Fc (IIIc) (human, UniProt P11362-14 22-285, limits assumed, biotinylated with biotin-LC-NHS).
T1 construct: Bought, R&D Systems 661-FR
T1 sequence (looked up): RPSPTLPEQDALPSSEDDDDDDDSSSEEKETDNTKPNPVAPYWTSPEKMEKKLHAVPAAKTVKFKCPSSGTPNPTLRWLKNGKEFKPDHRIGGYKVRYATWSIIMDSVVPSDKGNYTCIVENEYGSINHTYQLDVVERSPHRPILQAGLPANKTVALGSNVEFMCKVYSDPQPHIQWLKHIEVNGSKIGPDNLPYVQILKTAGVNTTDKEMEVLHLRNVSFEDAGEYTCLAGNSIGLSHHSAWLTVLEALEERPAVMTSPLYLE
Description: ELISA on coated biotinylated Fc fusion. The procedure:
(§1) For the ELISA 96-well plates pre-coated with streptavidin (Pierce, 15500) were coated over night at 4° C. with 1 μg/ml biotinylated protein. Wells coated with biotinylated TRAIL-Fc served as a reference. The next day plates were washed 3 times with PBST, treated with blocking reagent, and washed again 3 times with PBST. 100 μl of purified Fabs (1 μg/ml) were added and incubated for 1 h at r.t. After washing 3 times with PBST, an anti-hIgG (Fab-specific) coupled to HRP (1:2500 diluted; Sigma; A 0293) was added and incubated for 1 h at Lt. Color reaction was developed by addition of 50 μl TMB (Invitrogen, 2023) and stopped after 5-15 min by adding 50 μl H₂SO₄ (Merck, 1120801000). Colorimetric reaction was recorded at […] in a plate reader (Tecan). Wells containing TRAIL-Fc were used as background values and the signal to background ratios were calculated as summarized in Table 4.

Assay [2] addresses T2, hFGFR4-Fc (human, UniProt P22455 22-369, biotinylated with biotin-LC-NHS).
T2 construct: Bought, R&D Systems, printed Cat. No. 685-MF
T2 sequence (looked up): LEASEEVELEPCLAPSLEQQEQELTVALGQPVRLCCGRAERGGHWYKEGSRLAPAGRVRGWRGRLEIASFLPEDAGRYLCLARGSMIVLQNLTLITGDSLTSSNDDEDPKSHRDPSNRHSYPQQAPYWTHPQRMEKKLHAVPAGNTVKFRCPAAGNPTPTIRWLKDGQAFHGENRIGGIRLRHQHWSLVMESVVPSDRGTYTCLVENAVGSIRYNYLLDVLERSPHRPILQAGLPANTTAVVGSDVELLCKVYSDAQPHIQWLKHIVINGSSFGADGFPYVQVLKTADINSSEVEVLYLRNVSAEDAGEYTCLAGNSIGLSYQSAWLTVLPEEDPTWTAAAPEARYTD
Description: ELISA on coated biotinylated Fc fusion. The procedure:
as §1

Assay [3] has as its target T3, hFGFR3-Fc (IIIb) (human, UniProt P22607-2 23-377, biotinylated with biotin-LC-NHS).
T3 construct: Bought, R&D Systems 1264-FR
T3 sequence (looked up): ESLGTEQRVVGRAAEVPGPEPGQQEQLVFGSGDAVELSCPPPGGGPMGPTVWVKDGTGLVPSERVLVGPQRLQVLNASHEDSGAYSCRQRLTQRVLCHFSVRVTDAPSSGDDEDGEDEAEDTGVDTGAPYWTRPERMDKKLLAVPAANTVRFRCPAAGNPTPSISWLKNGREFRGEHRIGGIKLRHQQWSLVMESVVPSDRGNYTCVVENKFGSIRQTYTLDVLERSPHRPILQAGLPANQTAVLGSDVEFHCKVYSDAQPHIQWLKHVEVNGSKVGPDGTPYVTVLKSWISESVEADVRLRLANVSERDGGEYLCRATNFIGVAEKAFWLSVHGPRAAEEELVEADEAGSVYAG
Description: ELISA on coated biotinylated Fc fusion. On the procedure:
as §1
In general terms: An ELISA detects its analyte on a solid surface through an enzyme-linked reagent.

In assay [4] the target is T4, hFGFR2α-Fc (IIIb) (human, UniProt P21802 22-377, biotinylated with biotin-LC-NHS).
T4 construct: Bought, R&D Systems 663-FR, soluble Fc fusion
T4 chain: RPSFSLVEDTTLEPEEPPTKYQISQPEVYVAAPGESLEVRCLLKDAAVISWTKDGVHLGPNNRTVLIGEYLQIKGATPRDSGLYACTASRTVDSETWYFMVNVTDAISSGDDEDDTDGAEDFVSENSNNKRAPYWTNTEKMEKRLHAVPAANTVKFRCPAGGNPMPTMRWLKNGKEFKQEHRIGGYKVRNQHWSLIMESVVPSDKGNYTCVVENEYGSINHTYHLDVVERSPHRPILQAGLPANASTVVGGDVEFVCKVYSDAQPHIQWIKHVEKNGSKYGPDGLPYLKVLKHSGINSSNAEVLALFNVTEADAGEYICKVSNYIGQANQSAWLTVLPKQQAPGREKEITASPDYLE
Description: ELISA, 1 ug/ml Fab on coated antigen; grade of signal to background (+ 2-3, ++ 3-5, +++ >5). The procedure:
as §1

The target in assay [5] is T5, mFGFR2β-Fc (IIIb) (murine, UniProt P21803-2 22-263, limits assumed, biotinylated with biotin-LC-NHS).
T5 construct: Bought, R&D Systems 708-MF
T5 sequence (P21803 other isoform, or with tags, fused parts or gaps limits assumed): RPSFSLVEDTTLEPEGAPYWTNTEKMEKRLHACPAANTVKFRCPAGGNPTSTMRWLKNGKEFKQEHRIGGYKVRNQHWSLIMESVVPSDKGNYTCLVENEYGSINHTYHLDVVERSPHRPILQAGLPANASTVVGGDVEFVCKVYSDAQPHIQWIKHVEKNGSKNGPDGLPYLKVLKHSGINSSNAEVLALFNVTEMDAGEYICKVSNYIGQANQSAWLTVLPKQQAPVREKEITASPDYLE
The description is as above. On the procedure:
as §1

For assay [6], the target named is T6, hFGFR2β-Fc (IIIb) (human, UniProt P21802 22-377, biotinylated with biotin-LC-NHS).
T6 construct: also called FGFR2-2β Fc (IIIb)
T6 chain: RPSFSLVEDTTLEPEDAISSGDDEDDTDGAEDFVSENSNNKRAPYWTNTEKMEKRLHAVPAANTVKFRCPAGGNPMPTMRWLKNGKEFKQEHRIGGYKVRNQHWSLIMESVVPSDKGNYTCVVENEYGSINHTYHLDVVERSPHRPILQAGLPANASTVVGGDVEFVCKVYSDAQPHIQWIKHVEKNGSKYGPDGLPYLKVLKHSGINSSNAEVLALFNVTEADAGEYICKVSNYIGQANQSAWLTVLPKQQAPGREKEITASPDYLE
The description is as above. The procedure:
as §1

For assay [7], the target named is T7, recombinant human FGFR2 (Met 1-Glu 377) with C-terminal polyhistidine tag (human, UniProt P21802 22-377).
T7 construct: The range is that of the expressed DNA and begins at Met 1; also called His-tagged FGFR2; recombinant human FGFR2-IIIc molecule
Description: protein binding ELISA, antibody captured by anti-human IgG Fc, FGFR2-His titrated. The source says:
(§2) Two different types of ELISA were used to determine the binding improvement of mutated variants: a) Peptide Binding ELISA: a synthetic peptide comprising the amino acid sequence of the epitope linked C-terminally to a biotinylated lysine […]-Ttds-Lys(Biotin) (peptide sequence derived from SEQ ID NO:63, synthesized by JPT Peptide Technology GmbH, Berlin, Germany), and b) Recombinant Protein Binding ELISA: recombinant human FGFR2 (DNA sequence of human FGFR2 (NP 000132.3) Met 1-Glu 377, fused with a polyhistidine tag at the C-terminus; #10824-1-1081-1, Sin θ Biological Inc., Beijing, China).
(§3) Briefly, in both ELISA formats MTP plates (384 well Maxisorp, Nunc) were coated with 20 μl, anti-human IgG Fc specific (#12136; sigma) at 2.2 μg/ml for 2.5 h at 37° C. in coating buffer (#121125 Candor Bioscience GmbH). […] Anti-FGFR2 variants were immobilized in concentrations of 0.035 μg/ml (peptide based assay) or 0.2 μg/ml (recombinant human FGFR2 protein based assay) in 10% Smart Block in PBST depending on the format and variants to be analyzed by incubation of 20 μl for one hour at 20-22° C. After one washing step using 50 μl PBST, 20 μl quadruplets of the antigen dilution series in 10% SmartBlock in PBST with a maximum concentration of 100 nM were added and incubated for 1 h at 20-22° C. and the washing step was repeated 3 times. For the detection of the biotinylated epitope peptide 20 μl of streptavidine/POD conjugate (# S5512, Sigma) in a 1:1000 dilution in 10% SmartBlock in PBST were applied for one hour at 20-22° C. For the detection of the recombinant FGFR2 protein 20 μl of anti-His/HRP conjugate (#71840, novagen) in a 1:10000 dilution in 10% SmartBlock in PBST were applied for one hour at 20-22° C. After 3 washing steps 20 μl of 10 μM amplex red substrate (# A12222, Invitrogen) in 50 mM Sodium hydrogen phosphate, pH 7.6, were added and the fluorescence signal was detected using a common fluorescence reader, e.g. Tecan M1000. EC50 values were evaluated by fitting the data (Sigmoida) dose-response, variable slope, bottom set to background; GraphPad Prism software).

Assay [8] deals with T7, recombinant human FGFR2 (Met 1-Glu 377) …. Description: protein binding ELISA; against TPP-1415.
Text: as §2, §3

B1: M021-H02 (soluble Fab) (Fab, V domains shown)
VH: EVQLLESGGGLVQPGGSLRLSCAASGFTFSNYGIHWVRQAPGKGLEWVAVISYDGSNKYYADSVKGRFTISRDNSKNTLYLQMNSLRAEDTAMYYCARDSSSAEDYWGQGTLVTVSS
VL: QSVLTQPPSASGTPGQRVTISCSGSSSNTGSNTVNWYQQLPGTAPKLLIYRNNQRPSGVPDRFSGSKSGTSASLAISGLRSEDEADYYCETWDSNTRGVVFGGGTKLTVL
notes: Soluble Fab from E. coli, purified through its His-tag
Turning to B1, the binding result in assay [1], in assay [2] and in assay [3] was “no binding” each time. In addition, the “ELISA signal to background ratio” value in assay [4], in assay [5] and in assay [6] was > 5 ratio each time.

B2: TPP-1406 (antibody, human IgG1, lambda, V domains shown)
VH: EVQLLESGGGLVQPGGSLRLSCAASGFTFSHSGMHWVRQAPGKGLEWVAVISYDGSNKYYADSVKGRFTISRDNSKNTLYLQMNSLRAEDTAVYYCAREQPLYDFEYWGQGTLVTVSS
VL: AQSVLTQPPSASGTPGQRVTISCSGSSSNIGDNGVNWYQQLPGTAPKLLIYGASERPSGVPDRFSGSKSGTSASLAISGLRSEDEADYYCAAWDDSLDGWTFGGGTKLTVLG
notes: Matured variant of M047-D08
For B2, the EC50 in assay [7] is 0.22 nM. The “fold EC50 reduction” value in assay [8] came out at 37 fold.

B3: TPP-1407 (antibody, human IgG1, lambda, V domains shown)
VH: EVQLLESGGGLVQPGGSLRLSCAASGFTFSHSGMHWVRQAPGKGLEWVAVISYDGSNKYYADSVKGRFTISRDNSKNTLYLQMNSLRAEDTAVYYCAREQPLYDFEYWGQGTLVTVSS
VL: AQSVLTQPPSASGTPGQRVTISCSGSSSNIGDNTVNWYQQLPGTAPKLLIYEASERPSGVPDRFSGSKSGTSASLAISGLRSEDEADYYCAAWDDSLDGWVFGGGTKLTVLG
notes: Matured variant of M047-D08
As to B3, the EC50 in assay [7] came to 0.23 nM. Further, in assay [8], the “fold EC50 reduction” value is 35 fold.

B4: TPP-1410 (antibody, human IgG1, lambda, V domains shown)
VH: EVQLLESGGGLVQPGGSLRLSCAASGFTFSHSGMHWVRQAPGKGLEWVAVISYDGSNKYYADSVKGRFTISRDNSKNTLYLQMNSLRAEDTAVYYCAREAPGYDFEYWGQGTLVTVSS
VL: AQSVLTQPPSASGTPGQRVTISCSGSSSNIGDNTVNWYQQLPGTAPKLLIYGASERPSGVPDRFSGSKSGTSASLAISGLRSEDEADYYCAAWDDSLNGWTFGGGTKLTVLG
notes: Matured variant of M047-D08
As to B4, in assay [7], the EC50 worked out at 0.66 nM. The “fold EC50 reduction” value in assay [8] came out at 12 fold.

B5: TPP-1411 (antibody, human IgG1, lambda, V domains shown)
VH: EVQLLESGGGLVQPGGSMRLSCAASGFTFSSSGMHWVRQAPGKGLEWVAVISYDGSNKYYADSVKGRFTISRDNSKNTLYLQMNSLRAEDTAVYYCAREQPGYDFEYWGQGTLVTVSS
VL: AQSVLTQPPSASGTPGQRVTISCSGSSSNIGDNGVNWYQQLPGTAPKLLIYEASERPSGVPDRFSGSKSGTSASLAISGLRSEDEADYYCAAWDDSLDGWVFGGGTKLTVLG
notes: Matured variant of M047-D08
Turning to B5, the EC50 in assay [7] was determined as 0.61 nM. For the same molecule, the “fold EC50 reduction” value in assay [8] was 13 fold.

B6: TPP-1412 (antibody, human IgG1, lambda, V domains shown)
VH: EVQLLESGGGLVQPGGSLRLSCAASGFTFSHSGMHWVRQAPGKGLEWVAVISYDGSNKYYADSVKGRFTISRDNSKNTLYLQMNSLRAEDTAVYYCAREAPLYDFEYWGQGTLVTVSS
VL: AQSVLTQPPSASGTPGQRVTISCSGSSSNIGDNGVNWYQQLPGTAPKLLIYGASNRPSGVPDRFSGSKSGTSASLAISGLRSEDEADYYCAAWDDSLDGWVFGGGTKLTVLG
notes: Matured variant of M047-D08
As to B6, the EC50 in assay [7] came out at 0.29 nM. Further, in assay [8], the “fold EC50 reduction” value is 28 fold.

B7: TPP-1409 (antibody, human IgG1, lambda, V domains shown)
VH: EVQLLESGGGLVQPGGSLRLSCAASGFTFSTSGMHWVRQAPGKGLEWVAVISYDGSNKYYADSVKGRFTISRDNSKNTLYLQMNSLRAEDTAVYYCARESPGYDFEYWGQGTLVTVSS
VL: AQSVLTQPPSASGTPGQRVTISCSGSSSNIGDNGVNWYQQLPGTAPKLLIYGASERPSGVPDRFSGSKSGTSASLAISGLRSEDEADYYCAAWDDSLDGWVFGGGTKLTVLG
notes: Matured variant of M047-D08
In the case of B7, in assay [7], the EC50 was determined as 2.1 nM. Besides, in assay [8], the “fold EC50 reduction” value was determined as 3.8 fold.

B8: M048-D01 (soluble Fab) (Fab, V domains shown)
VH: EVQLLESGGGLVQPGGSLRLSCAASGFTFSSYAMSWVRQAPGKGLEWVSAISGSGTSTYYADSVKGRFTISRDNSKNTLYLQMNSLRAEDTAVYYCARVRYNWNHGDWFDPWGQGTLVTVSS
VL: QSVLTQPPSASGTPGQRVTISCSGSSSNIGNNYVSWYQQLPGTAPKLLIYENYNRPAGVPDRFSGSKSGTSASLAISGLRSEDEADYYCSSWDDSLNYWVFGGGTKLTVL
notes: as for B1
Take B8: the binding result in assay [1], in assay [2] and in assay [3] was “no binding” throughout. Moreover, the “ELISA signal to background ratio” value in assay [4], in assay [5] and in assay [6] was > 5 ratio each time.

One may read the EC50 as the concentration giving half of the maximal effect.
